Key:
[1] = molecular target: N15 Cro (Escherichia phage N15) (UniProt P03040); settings: cited from earlier work
[2] = molecular target: bacteriophage N15 Cro (bacteriophage N15); test: native MS
[3] = molecular target: λ Cro (Escherichia phage lambda) (UniProt P03040); settings: cited from earlier work
[4] = molecular target: T1, bacteriophage λ Cro (bacteriophage λ), P03040; test: native MS; settings: remark: other sources report otherwise
T1 chain: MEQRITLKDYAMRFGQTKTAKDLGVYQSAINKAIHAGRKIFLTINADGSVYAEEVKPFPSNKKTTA

**Q.** Which Kd [1] does the source give for N15 Cro (from UniProt P03040) here?
**A.** 5 µM

**Q.** With bacteriophage N15 Cro (natural protein) as the molecule, how does the stoichiometry N [2] read?
**A.** 2

**Q.** Which Kd [3] does the source give for λ Cro (from UniProt P03040) here?
**A.** 3 µM

B1: bacteriophage λ Cro, P03040 1-66 (natural protein)
chain: T1 chain
**Q.** With B1 as the molecule, how does the stoichiometry N [4] read?
**A.** 2

Source: article PMC3094495
